The results in this text go back to patent US6573364 (CURAGEN, dated 2003).

Sequences and labels used below:
B2: HPS protein fragment 210-1292 fused to the Gal4 activator domain (reverse screen) (other)
chain: KCVLVATEGAEVLFYWTDQEFEESLRLKFGQSENEEEELPALEDQLSTLLAPVIISSMTMLEKLSDTYTCFSTENGNFLYVLHLFGECLFIAINGDHTESEGDLRRKLYVLKYLFEVHFGLVTVDGHLIRKELRPPDLAQRVQLWEHFQSLLWTYSRLREQEQCFAVEALERLIHPQLCELCIEALERHVIQAVNTSPERGGEEALHAFLLVHSKLLAFYSSHSASSLRPADLLALILLVQDLYPSESTAEDDIQPSPRRARSSQNIPVQQAWSPHSTGPTGGSSAETETDSFSLPEEYFTPAPSPGDQSSGSTIWLEGGTPPMDALQIAEDTLQTLVPHCPVPSGPRRIFLDANVKESYC
notes: Residue limits are derived from the printed nucleotide limits; also called HPS protein domain 210-1292; HPS U65676 210-1292; not shown: order of the two pie
B4: HPS protein fragment 1272-2357 fused to the Gal4 activator domain (reverse screen) (other)
chain: NVKESYCPLVPHTMYCLPLWQGINLVLLTRSPSAPLALVLSQLMDGFSMLEKKLKEGPEPGASLRSQPLVGDLRQRMDKFVKNRGAQEIQSTWLEFKAKAFSKSEPGSSWELLQACGKLKRQLCAIYRLNFLTTAPSRGGPHLPQHLQDQVQRLMREKLTDWKDFLLVKSRRNITMVSYLEDFPGLVHFIYVDRTTGQMVAPSLNCSQKTSSELGKGPLAAFVKTKVWSLIQLARRYLQKGYTTLLFREGDFYCSYFLWFENDMGYKLQMIEVPVLSDDSVPIGMLGGDYYRKLLRYYSKNRPTEAVRCYELLALHLSVIPTDLLVQQAGQLARRLWEASRIPLL
notes: Codes for the same HPS residues as the 1272-2306 construct but is a separate construct; also called HPS protein domain 1272-2357; HPS U65676 1272-2357; not shown: order of the two pie

Experiment [1] concerns the target B4. Kind of experiment: yeast two-hybrid, reverse screen; listed in Table I as an interaction with HPS 1272-2357, 1 isolate. As to the method: (§1) The two mating strains ([…]) were then diluted in YAPD media (see Id.) filtered onto nitrocellulose membranes and incubated at 30° C. for 6–8 hours. […] The mating products were plated on synthetic complete (SC) media (see Kaiser, Michaelis & Mitchell, Eds., 1994. *Methods in Yeast Genetics*, 1994 *Ed.* (Cold Spring Harbor Laboratory Press, New York, N.Y.) lacking adenine and lysine (to select for successful mating), leucine and tryptophan (to select for expression of genes encoded by both the bait and prey plasmids), and uracil and histidine (to select for protein interactions). This medium is hereinafter referred to as SCS medium, for SC Selective medium.
(§2) Selected clones were subsequently examined for expression of β-galactosidase to confirm the formation of an HPS protein•HPS protein-IP interaction. […]
(§3) The cells contained within colonies which were "positive" for protein interaction contained a mixture of DNA-binding and activation-domain plasmids. […] Approximately 10 μl of each selected isolate was lysed, the inserts within the pAD-GAL4 or pGAD-GH for the activation domain plasmids and pBD-GAL4 or pGBT9BS plasmids were PCR amplified using primers specific for the flanking sequences of each vector and approximately 300 nucleotides (of what would be the protein's amino-terminus following translation) was determined using an ABI 377 sequenator. […]

Experiment [2] concerns the target T1, HPS protein fragment 1272-2306 fused to the Gal4 activator domain (reverse screen) (yeast; human, UniProt Q92902 356-700).
T1 construct: Residue limits are derived from the printed nucleotide limits; also called HPS protein domain comprised of nucleotides 1272-2306; HPS U65676 1272-2306; not shown: order of the two pie
T1 sequence: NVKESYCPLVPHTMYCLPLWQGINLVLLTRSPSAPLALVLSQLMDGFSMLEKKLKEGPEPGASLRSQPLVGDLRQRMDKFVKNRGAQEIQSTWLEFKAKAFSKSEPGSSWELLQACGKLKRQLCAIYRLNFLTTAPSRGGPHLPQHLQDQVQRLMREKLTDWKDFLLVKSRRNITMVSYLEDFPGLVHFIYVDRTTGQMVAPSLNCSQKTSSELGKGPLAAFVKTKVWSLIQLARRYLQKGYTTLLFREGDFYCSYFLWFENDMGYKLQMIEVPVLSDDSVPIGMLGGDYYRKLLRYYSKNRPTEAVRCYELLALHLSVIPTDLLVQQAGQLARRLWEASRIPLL
The experiment can be described thus: yeast two-hybrid, reverse screen; listed in Table I as an interaction with HPS 1272-2306, 1 isolate. As for the experimental part: as §1, §2, §3

For experiment [3], the target named is T2, Atrophin-1, prey insert starting at nucleotide 2649 of GenBank U23851, fused to the Gal4 DNA binding domain (yeast; human, UniProt P04386 1-147).
T2 construct: Prey of the reverse screen; Residue limits derived from the printed nucleotide start; also called Atrophin I; atrophin-I
Kind of experiment: yeast two-hybrid, reverse screen; listed in Table I as an interaction with HPS 210-1292, 1 isolate. As for the experimental part:
as §1, §2, §3

Experiment [4] has as its target B2. The experiment can be described thus: yeast two-hybrid, reverse screen; listed in Table I as an interaction with HPS 210-1292, 2 isolates. As for the experimental part:
as §1, §2, §3

For experiment [5], the target named is T3, CDK2, prey insert starting at nucleotide 4 of GenBank X61622, fused to the Gal4 DNA binding domain (yeast; human, UniProt P04386 1-147).
T3 construct: Prey of the reverse screen; Residue limits derived from the printed nucleotide start; also called CDK2 X61622 4-*
The experiment can be described thus: yeast two-hybrid, reverse screen; listed in Table I as an interaction with HPS 1272-2357, 1 isolate. As for the experimental part: as §1, §2, §3

The target in experiment [6] is T4, HPS protein bait fragment 210-1292 fused to the Gal4 DNA binding domain (forward screen) (yeast; human, UniProt P04386 1-147).
T4 construct: Residue limits are derived from the printed nucleotide limits; also called Hermansky-Pudlak Syndrome protein; HPS U65676 210-1292
The experiment can be described thus: yeast two-hybrid, forward screen; listed in Table I as an interaction with HPS 210-1292, 3 isolates. As to the method: as §1, §2, §3

B1: 14-3-3 protein eta isoform, prey insert starting at nucleotide 764 of GenBank X80536, fused to the Gal4 DNA binding domain (other, yeast)
chain: MKLLSSIEQACDICRLKKLKCSKEKPKCAKCLKNNWECRYSPKTKRSPLTRAHLTEVESRLERLEQLFLLIFPREDLDMILKMDSLQDIKALLTGLFVQDNVNKDAVTDRLASVETDMPLTLRQHRISATSSSEESSNKGQRQLTVSQACLLAKQAFDDAIAELDTLNEDSYKDSTLIMQLLRDNLTLWTSDQQDEEAGEGN
notes: Prey from a human fetal brain cDNA library, reverse screens; Residue limits derived from the printed nucleotide start; also called 14-3-3 eta
With B1, the binding result in experiment [1] and in experiment [2] was “binds” in each case.

Consider B2, for which the binding result in experiment [3] is listed as “binds”.

B3: BMK1 alpha kinase, prey insert starting at nucleotide 2431 of GenBank U29725, fused to the Gal4 DNA binding domain (other, yeast)
chain: MKLLSSIEQACDICRLKKLKCSKEKPKCAKCLKNNWECRYSPKTKRSPLTRAHLTEVESRLERLEQLFLLIFPREDLDMILKMDSLQDIKALLTGLFVQDNVNKDAVTDRLASVETDMPLTLRQHRISATSSSEESSNKGQRQLTVSGAGYGVGFDLEEFLNQSFDMGVADGPQDGQADSASLSASLLADWLEGHGMNPADIESLQREIQMDSPMLLADLPDLQDP
notes: Prey of the reverse screen, 2 isolates; Residue limits derived from the printed nucleotide start
As to B3, the binding result in experiment [4] is listed as “binds”. Take B4: in experiment [5], the binding result is “binds”.

B5: HPIP1 (prey sequence of 619 nucleotides, interaction starting at nucleotide 1) fused to the Gal4 activator domain (other, not shown: large carriers)
chain: GTRLSINPNNHSWLIIQADIYFATNQYSAALHYYLQAGAVCSDFFNKAVPPDVYTDQVIKRMIKCCSLLNCHTQVAILCQFLREIDYKTAFKSLQEQNSHDAMDSYYDYIWDVTILEYLTYLHHKRGETDKRQIAIKAIGQTELNASNPEEVLQLAAQRRKKKFLQAMAKLYF
notes: Prey of the forward screen, 3 identical clones from a human fetal brain cDNA library; also called cg49368.b1; cg49367.h11
In the case of B5, the binding result in experiment [6] is “binds”.
